Measured values published in patent US20240181073A1, “Antibody-Drug Conjugates Comprising an Anti-BCMA Antibody” (Sorrento Therapeutics, Inc., priority 2021, published 2024).

B1: BCMA-AB1-3: Compound 3 conjugated with anti-BCMA antibody clone BCA7-2C5 (AB1) (conjugate)
VH: EVQLVESGGGLVKPGGSLRLSCAASGFTSSTAWMSWVRQAPGKGLEWVGRIKSKSDGGTTDYAAPVKGRFTISRDDSKNTLFLQMNSLKTEDTAVYYCAKGGGTYGYWGQGTTVTVSS
VL: QSVLTQPASVSGSPGQSVTISCTGTSSAHGGHYYVSWYQQHPGKAPKLMIYDVSNRPSGVSNRFSGSKSGNTASLTISGLQAEDEADYYCGSYTSSGSYVFGTGTKLTVL

Assays:
[1] = system: NCI-H929 (BCMA+) cells and K562 (BCMA −) cells; assay: In vitro cytotoxicity assay, Example B2, statements across all cell lines; type: cell-based, human; details: regardless of BCMA expression level; read-out: average EC50, inhibition of cell proliferation across all cell lines
Experimental: The in vitro efficacies of ADCs anti-BCMA-Compound 50, anti-BCMA-Compound 51, anti-BCMA-Compound 52, and anti-BCMA-Compound 53, were compared to anti-BCMA-Compound 3. Anti-BCMA-AB1 clone was conjugated with compounds 50, 51, 52, 53 or 3 and the ADCs were evaluated using the following human cancer cell lines: BCMA-negative K562 and BCMA-positive NCI-H929, purchased from the American Type Culture Collection (ATCC; Manassas, VA). […]
The in vitro assays were performed as follows: All cells were harvested by removal of a portion of the cell culture suspension followed by centrifugation at 300 g for 5 minutes, followed by resuspension in cell culture medium (described above in Cell Culture method), viable cell count (as described above in Cell Culture method), and then seeded into 384-well white wall clear bottom plates (Catalog #3765, Corning) at a density of 2,500 cells/well in growth media. […] After treatment, cell viability was determined by CellTiter-Glo 2.0 assay (Catalog #G9243; Promega; Madison, WI, USA) based on the manufacturer's instructions. CellTiter Glo reagent reacts with ATP in metabolically active cells to give a luminescent readout that is directly proportional to the number of viable cells. […] Luminescence was measured using a Tecan Spark microplate reader (Tecan; Mannedorf, Switzerland). […]

BCMA-negative K562 = assay: In vitro cytotoxicity assay (CellTiter-Glo 2.0, 384-well), Example B2; type: cell-based, human
Experimental: (§1) The in vitro efficacies of ADCs anti-BCMA-Compound 50, anti-BCMA-Compound 51, anti-BCMA-Compound 52, and anti-BCMA-Compound 53, were compared to anti-BCMA-Compound 3. Anti-BCMA-AB1 clone was conjugated with compounds 50, 51, 52, 53 or 3 and the ADCs were evaluated using the following human cancer cell lines: BCMA-negative K562 and BCMA-positive NCI-H929, purchased from the American Type Culture Collection (ATCC; Manassas, VA).
(§2) Cell Culture Method: The cell lines were cultured in RPMI-1640 medium (Catalog #10-041-CV: Corning) supplemented with 10-20% fetal bovine serum (FBS; Catalog #MT35011CV; Corning) and 1× penicillin-streptomycin (Catalog #30-002-Cl, Corning) and maintained at 37° C. in a 5% C02 humidified environment. Viable cell counts were made by Trypan blue exclusion using a Countess or Countess II automated cell counter.
(§3) The in vitro assays were performed as follows: All cells were harvested by removal of a portion of the cell culture suspension followed by centrifugation at 300 g for 5 minutes, followed by resuspension in cell culture medium (described above in Cell Culture method), viable cell count (as described above in Cell Culture method), and then seeded into 384-well white wall clear bottom plates (Catalog #3765, Corning) at a density of 2,500 cells/well in growth media. Plates were maintained at 37° C. The outer wells of plates contained medium only and were used for background subtraction for the cell viability assay. Working solutions of test articles were prepared at 2× final concentrations with 5-fold serial dilutions in complete growth medium. Cell treatment was performed in either technical triplicates or duplicates and maintained at 37° C. for 120-hour assay. After treatment, cell viability was determined by CellTiter-Glo 2.0 assay (Catalog #G9243; Promega; Madison, WI, USA) based on the manufacturer's instructions. CellTiter Glo reagent reacts with ATP in metabolically active cells to give a luminescent readout that is directly proportional to the number of viable cells. Briefly, plates were removed from the incubator and equilibrated to room temperature before addition of CellTiter Glo reagent. Luminescence was measured using a Tecan Spark microplate reader (Tecan; Mannedorf, Switzerland).
(§4) Data Analysis: For Cytotoxicity assays, raw luminescence data was background subtracted with average luminescence from the outer wells containing medium only and normalized to untreated controls using Excel (Microsoft; Albuquerque, NM). Dose-response relationships and EC50 values were determined based on non-linear regression analysis of normalized data fit to a four-parameter logistic equation using GraphPad Prism 8.0.

BCMA-positive NCI-H929 = assay: as above; type: cell-based, human
Experimental: as §1, §2, §3, §4

K562 (BCMA −) cells = assay: In vitro cell viability assay (Cell Titer-Glo 2.0), Example B1; type: cell-based, human; details: Table 4; 5-day assays; AB1 clone; read-out: EC50 Values, Cell Line K562
Experimental: (§5) The in vitro efficacies of ADCs anti-BCMA-Compound 1, anti-BCMA-Compound 2, anti-BCMA-Compound 3, anti-BCMA-Compound 4, anti-BCMA-Compound 5, anti-BCMA-Compound 6, anti-BCMA-Compound 7, and anti-BCMA-Compound 8, were evaluated using the following human cancer cell lines: K562, MM.1R and NCI-H929, purchased from the American Type Culture Collection (ATCC; Manassas, VA). The cells were cultured in RPMI-1640 medium (Gibco ThermoFisher; Waltham, MA) supplemented with 10% heat-inactivated fetal bovine serum (FBS: Corning; Corning, NY, USA) and 1× penicillin-streptomycin (Corning) and maintained at 37° C. in a 5% CO2 humidified environment.
(§6) The in vitro assays were performed as follows: Tumor cells were harvested by centrifugation at 300 g for 5 minutes and plated into 96-well clear bottom white-walled plates (5,000 to 10,000 cells/well in 50 μL complete medium) and maintained at 37° C. Cells were then treated in duplicate with 50 μL of test articles prepared at 2× final concentration that were serially diluted in complete medium and incubated at 37° C. for up to 120 hrs. After treatment, inhibition of cancer cell growth was determined using the Cell Titer-Glo® 2.0 Cell Viability Assay (Promega; Madison, WI, USA) as described by the manufacturers' protocol. Luminescence was measured using a Perkin-Elmer Envision 2104 Microplate Reader (Waltham, MA).
Data were normalized to non-treated controls using Microsoft Excel (Redmond, WA, USA) and analyzed using GraphPad Prism software (version 8; La Jolla, CA, USA). Half-maximal effective concentrations (EC50) were derived from dose response curves were generated using non-linear regression analysis fit to a 4-parameter logistic equation.

K562, MM.1R and NCI-H929 = assay: In vitro cell viability assay, Example B1, statements over several cell lines; type: cell-based, human; details: AB1 clone versus AB2 clone ADCs
Experimental: as §5
as §6, with “Cells were then treated in duplicate with 50 μL of test articles prepared at 2× final concentration that were serially diluted in complete medium and incubated at 37° C. for up to 120 hrs.” left out
Data were normalized to non-treated controls using Microsoft Excel (Redmond, WA, USA) and analyzed using GraphPad Prism software (version 8; La Jolla, CA, USA). […]

OPM2 tumor xenograft = assay: In vivo efficacy, OPM2 tumor xenograft in SCID beige mice; parameters: species or system CB17 SCID beige mice; details: Experiment II, FIG. 4
Experimental: (§7) Female CB17 SCID beige mice, 6 weeks of age, were purchased from Charles River Laboratories.
(§8) Human multiple myeloma tumor cell lines NCI-H929 and OPM2 were cultured and expanded in RPMI 1640 medium supplemented with 10% FBS, 100 units/ml of penicillin and 100 μg/ml of streptomycin at 37° C. in a 5% CO2 humidified environment for a period of 2-3 weeks before harvesting for implantation. Cell viability determined by Trypan blue dye exclusion assay was >90% before implantation. 5 million of OPM2 or NCI-H929 cells in 100 μl of PBS—Matrigel 1:1 (v/v) mixture were inoculated to the right upper flank of each mouse by s.c. injection.
(§9) Tumor volume measurement was started at day 14 after tumor cell inoculation and performed twice weekly. The longest longitudinal diameter as length and the widest transverse diameter as width were measured by using a digital caliper. Tumor volume (TV) were then calculated by the formula: TV=[length×(width)^2]/2 and were analyzed in Excel.
(§10) The treatment was started when average tumor size reaches ˜400, 200 and 150 mm^3 for NCI-H929 tumor xenografts in Experiment I, III and IV, respectively, or ˜240 mm^3 for OPM2 tumor xenograft in Experiment I.
Mice were euthanized when tumor size reached 2000 mm^3. […]
Raw data of tumor measurements were analyzed in Excel. […]

NCI-H929 tumor xenograft = assay: In vivo efficacy, NCI-H929 tumor xenograft in SCID beige mice; parameters: species or system CB17 SCID beige mice; details: for tumor growth: i.p.
Experimental: as §7, §8, §9, §10
Mice were euthanized when tumor size reached 2000 mm^3.
After tumor-bearing mice were randomized, anti-BCMA antibody (BCMA-AB1 or BCMA-AB2), anti-BCMA antibody conjugate with Compound 3 (BCMA-AB1-3 or BCMA-AB2-3) or iso-type antibody conjugate with Compound 3 (iso-3) diluted in PBS were administered to mice through i.p. injections. Treatment regimens included 8 mg/kg once, 4 mg/kg Q1W×2 and 2 mg/kg biw×4 of anti-BCMA-AB1 or anti-BCMA-AB1-Compound 3 in Experiment I (FIG. 3); 2 mg/kg biw×4 and 0.67 mg/kg biw×4 of anti-BCMA-AB1 or anti-BCMA-AB1-Compound 3 in Experiment II (FIG. 4); 1, 2, 4, and 8 mg/kg once of anti-BCMA-AB1-Compound 3 or iso-3 in Experiment III (FIG. 5); and 4 mg/kg biw×4 of anti-BCMA-AB2 or 2 and 4 mg/kg biw×4 of anti-BCMA-AB2-Compound 3 in Experiment IV (FIG. 6).
Raw data of tumor measurements were analyzed in Excel. Tumor growth curves were plotted using GraphPad Prism 8.0 software and values were presented as mean t SEM.

[2] = Table 7, 120-hour (5-day) assay, AB1 clone

Molecule | EC50 [1] | EC50 (BCMA-negative K562; [2]) | EC50 (BCMA-positive NCI-H929; [2]) | activity against K562 cells (BCMA-negative K562; 5-day assays, FIG. 8) | effect on NCI-H929 cell viability (BCMA-positive NCI-H929; 5-day assays, FIG. 8) | EC50 (K562 (BCMA −) cells) | relative potency, comparison of Table 5 and Table 6 (K562, MM.1R and NCI-H929) | tumor regression / elimination (OPM2 tumor xenograft; high-dose regimen) | tumor growth (OPM2 tumor xenograft; i.p., 2 mg/kg biw×4 and 0.67 mg/kg biw×4) | tumor regression / elimination (NCI-H929 tumor xenograft; Experiment I, FIG. 3, all regimens) | tumor growth (NCI-H929 tumor xenograft; Experiment I, FIG. 3, 8 mg/kg once, 4 mg/kg Q1W×2, 2 mg/kg biw×4, start ~400 mm^3) | tumor regression / elimination (NCI-H929 tumor xenograft; Experiment III, FIG. 5, high doses) | tumor growth (NCI-H929 tumor xenograft; Experiment III, FIG. 5, 1, 2, 4, and 8 mg/kg once)
CC[C@H](C)[C@@H]([C@@H](CC(=O)N1CCC[C@H]1[C@H](OC)[C@@H](C)C(=O)N[C@H](CN=[N+]=[N-])Cc1ccc(NC(C)C)cc1)OC)N(C)C(=O)[C@@H](NC(=O)[C@H](C(C)C)N(C)C)C(C)C [D3, reference compound] | 0.88 to 1.53 nM | 1.52 nM | 1.08 nM |  |  |  |  |  |  |  |  |  | 
B1 |  |  |  | did not show activity | dose-dependently reduced | > 100 nM | most potent | induced dramatic and prolonged tumor regressions and eliminated all tumors in about two weeks after initial treatments | significantly and dose-dependently inhibited tumor growth | induced dramatic and prolonged tumor regressions and eliminated all tumors in about two weeks after initial treatments | significantly inhibited tumor growth | induced dramatic and prolonged tumor regressions and eliminated all tumors in about two weeks after initial treatments | significantly inhibited tumor growth in a dose-dependent manner
